From the nanobody polyreactivity screen of Harvey et al. (2022)

Assay: yeast display, Sf9 membrane polyspecificity reagent, FACS + sequencing; frameworks hold sequencing errors
Method in brief: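 Genes from sorted yeast were amplified by colony PCR, read by MiSeq 2 × 250 sequencing and filtered on CDR length. These cells carried a synthetic nanobody library in Saccharomyces cerevisiae BJ5465 and were sorted by FACS into low and high (top ~1%) gates on anti-HA and streptavidin fluorescence. Polyreactivity is labelled according to the gate of origin.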

| Sequence | polyreactivity (PSR sort gate) |
| --- | --- |
| QVQLVESGGGLVQAGGSLRLSCAASGSIFRAYAMGWYRQAPGKERELVAAISWGGGSTSYADSVKGRFTISRDNAKNTVYLQMNSLKPEDTAVYYCNKVSFSKRRDYYWGQGTQVTVSS | high polyreactivity |
| QVQLVESGGGLVQAGGSLRLSCAASGFTFTWYAMGWYRQAPGKQRELVASISRSGGSTYYAESVKGRFTISRDNAKNTVYLQMNSRKPEDTAVYYCAAVSRTRSYDYWGQGTQVTVSS | high polyreactivity |
| QVQLVESGGGLVQAGGSLRLSCAASGSTFSLYTMGWYRQAPGKERELVAAITWTGGSTYYADSVKGRFTISRDNAKNTVYLQMNSLKPEDTAVYYCAAVSRLTGSRESQLIRSRMYYWGQGTQVTVSS | high polyreactivity |
| QDQLVESGGGLVQAGGSLRLSCAASGSSFLVYAMGWYRQATGKEREFVAAIRGGGSTNYADSVKGRFTISRDNAMNTVYLQMNSLKPEDTAVYYCAAYLLYTPSMDYWGQGTQVTVSS | low polyreactivity |
| QVQLVESGGGLVQAGGSLRLSCAASGFTFRKNAMGWYRQAPGKERELVAAISRRGGRTYYADSVKGRFTISRDNAKNTVYLQMNSLKPEDSAVYYCNDDEYGGSSGRKGRYNYWGQGTQVTVSS | low polyreactivity |
| QVQLVESGGGLVQAGGSLRLSCAASGSIIDLYAMGWYRQAPGKERELVAAISFSGGSTYYADSVKGRFTISRDNAKNTVYLQMNSLKPEDTAVYYCAKDVRRTLRFRAFDYWGQGTQVSVSS | low polyreactivity |
| QVQLVESGGGLVQAGGSLRLSCAPSGIIFLGYMGWYRQAPGKEREFVADITFSVDGTYYADSVKGRFTISRDNAKNTVYLQMNSLKPEDNAVYYCAAVSDLQAGTMEYWGQGTEVTVSS | high polyreactivity |
| QVQLVESGGGLVQAGGSLRLSCAASGRIFSGYAMGWYRQAPGKERELVAAITSVGSTNYADSVKGRFTISRDNAKNTVYLQMNSLKPEDTAVYYCARYSYRGTNVRYDYWGQGTQVTVSS | high polyreactivity |
| QVQMQESSGGLVHAGGSLRKSCAASGTIYHFHIMGWYRQAPGKEREFVAAIRYGTSTYYADSVKGLFTISRDNEKNTVYVKMNSQKPEDTAVYYCAVYDYLEVYCWYWGQGTQVTVSS | low polyreactivity |
| QVQLVESGGGLVQAGGSLRLSCAASGNIFYGYAMGWYRQAPGKERELVARINWSGSRTYYADSVKGRFTISRDNAKNSVYLQMNSLKPEDTAVYYCNTSTSRVPGNGDYWGQGTQVTVSS | high polyreactivity |
| QVQLVESGGGLVQAGGSLRLSCAATGFTFYVNAMGWYRQAPGKERELVAGITTSDGSTYYADSVKGRFTISRDNAKNTVYLQMNSLKPEDTAVYYCAAAITWYQLYQRSGGDYWGQGTQVTVSS | low polyreactivity |
| QVQLVESGGGLVQAGGSLRISCAASGFTFPLYAMGWYRQAPGKERELVAAINYRGSSTYYADSVKGRFTISRDNAKNTVYLHMNSLKPEYTAVYYCNAADPVWNQVYWGSNEYDYWGQGTQVTVSS | high polyreactivity |
| QVQLVESGGGLVQAGGSLRLSCAASGYIFWYNAMGWYRQAPGKERELVAAISRSGGRTYYADSVKGRCTISRDNAKNTVYLQMNSLKPDDTAVYYCAAGSSHHYVYEGGYWGQGTQVTVSS | low polyreactivity |
| QVQLVESGGGLVQAGGSLRLSCAASGYIFGVYAMGWYRQAPGKERELVAAISYGVGSTSYADSVKGRFTISRDNAKNTVYLQMNSLKPEDTAVYYCAADVFFYVYEAYLLYYWGQGTQVTVSS | low polyreactivity |
| QVQLVESGGGLVQGGGSLRLSCAASGRILYSYAMGWYRQAPGKERELVAAISWRGGPTYYADSVKGRFTISRDNAKNTVYLQLNSLKPEDTAVSNCAPEFYDHPWMYDYWGQGTQVTVSS | low polyreactivity |
| QVQLVESGGGLVQAGGSLRLSCAASGNIFVAYPMGWYRKATGKERELVAVISNGGRTYYADSVKGRFTISRDNAKNTVYLQMNSLKPEDTAVYYCATVAHASYGWHNYWGQGTQVTVSS | high polyreactivity |
| QVQLVESGGGLVQAGGSLRLSCAASGLIFSAYAMGWYRQAPGKERELVAAISRRGTSTYYADSVKGRFTISRDNAKNTVYLQMNSLKPEDTGVYYCAADGYVFEGDYWGQGTQVTVSS | high polyreactivity |
| QVQIVESGGGLVQAGGSLRLSCAASGLTFRSYTIGWYRHAPGKERELVAAISSGGSTYYADSVKGRFTISRDNAKNTVYLQMNSRKPEDTAVYFCAAPRGHGKYYSWGQGTQVTVSS | high polyreactivity |
| QVQLVESGGGLDQAGGSLRLSCAASGFTSYKYSRGWYRQAPGKETELVAASTGSGSRTFYADSVKGRFTISRDNAKNSFYLLMNSLKPEDTADYYCAARRPLYPERDYWGHGTQVTVSS | high polyreactivity |
| QVQLVESGGGLVQAGGSLRLSCAASGSTLRRYAMGWYRQAPGKERDLVAAITSRGTDTYYADSVKGRFTISRDNAKNTVYLQMNSLKPEDTAVYYCAASWVAGGHYGYDYWGQGTQVTVSS | high polyreactivity |
| QVQLVESGGGLVQAGGSLRLSCAASGYTFWAYAMGWYRQAPGKERELVAAITYRGGSTYYADSVKGRFTISRDNAKNTVYLQMNSLKPEDTAVYYCAAEGYYTGYWDLYDYWGQGTQVTVSS | high polyreactivity |
| QVHLVESGGGLVQAGGSLRLSSDASGSTFHPYAMGLYRQAPGKERELVAAISWTGGRTYYADSVKGRFTISRDYAKNTVYLQMNRLKREDTAVYYCAARTYGKVGYWGQGTQVTVSS | high polyreactivity |

| Sequence | polyreactivity (PSR sort gate) |
| --- | --- |
| QVQLVESGGGLVQAGGSLRLSCAASGRTFVPYAMGWYRQAPGKERELVAAISSGGDTNYADSVKGRFTISRDNAKNTVYLQMNSLKPEDSAVYYCAKDLTQIYYGDDYWGQGTQVTVSS | low polyreactivity |
| QVQLVESCGGLVQAGGSLRLSCAASGRIFSDYAMGWYRQAPGKERELVATITSGDSTNYADSVKGRFTISRDNAKNTVYLQMNSLKPEDTAVYYCNADRFADYDYWGQGTQVTVSS | low polyreactivity |
| QVQLVDSGGGLVQAGGSLRLSCAASGSTFKYYGMGWYRQAPGKERELVASISSSGTRTYYADSVKGRFTISRDNAKNTVYLQMNSLKAEDTAVYYCAADSYATYFLYDSWGQGTQVTVSS | low polyreactivity |
| QVQLVESGGGLVQAGGSLRLSCAASGRIFGGYDMGWYRQAPGKERELVAAMTSDSSTTYADSVKGRFTISRDNAKNTVYLQMNSLKPEDTAVYYCAVQVNGPVFYRPYLDYDYWGQGTQVTVSS | low polyreactivity |
| QVQLVESGGGLVQAGGSLRLSCAASGRTFYYNAMGWYRQAPGKERELVAAISSGDSTYYADSVKGRFTISRDNAKNTVYLQMNSLKPEDTAVYYCNKYVAYDYWGQGTQVTVSS | low polyreactivity |
| QVQLVESGGGLVQAGGSLRLSCAASGFIFKRYAMGWNRQAPGKVRELVAAITSRGGSTYYADSVKGRFTISRDNAKNTVYLQMNSLKPEDTAVYYCNAGTSAGSYDYWGQGTQVTVSS | high polyreactivity |
| QVQLQESGGGLVQAGGSLRLSCAASGNISVTGFMGWYRQAPGKERELVASIGIGGTTYYADSVKGRFSISRDNAKNTVYLQINSLKPVDTAVYYCAARYLYYAYSYWGQGTQVTVRS | low polyreactivity |
| QVQLVESGGGLVQAGGSLRLTCAASGSTFTVNGMGWYRQAPGKERELVASITWSGGSTYYADSVKGRFTISRDNAKITVYLQMNSLKPEDTAVYYCAADEKLYITGYDYWGQGTQVTVSS | low polyreactivity |
| QVQLVESGGVLVQAGGSLRLSCAASGRTFGGNVMAWYRQAPGKERELVAAISYSGGSTHYADSVKGRFTNSRDNAKNTVYLQMNSLKPEDTAVYYCAKDGEVTGDYWGLGTQVTVSS | low polyreactivity |
| QVQLEESGGGVVQAGGSLRLSCAASGRTLSHYAIGWYRQAPGKERELVAVISWSGTSTYYADSVKGRFTISRDNAKNTVYLQMNSLKPEDTAVYYCNADTYGYYLWTGAVSAGDDYWGQGTQVTVSS | low polyreactivity |
| QVQLVESGRGLVQAGGSLRLSCAASGFTFGYYAMGWYRQAPGKERELVASISRSGGSTNYADSVKGRFTISRDNAKNTVYLQMNSLKPEDTAVYYCNKRSYWYQGRFDYWGQGTQVTVSS | high polyreactivity |
| QVQLQESGGGLVQAGGNLRLSCAACGNIFPSAVMGWYRQALGKEREFVATINSGSNTYYADSVKGRFTISRDHAKNTVYLQTNSLKLEDTAVYYCAAYFKLPAWHTYWGQGTQVTVSS | low polyreactivity |
| QVQLVESGGGLVQAGGSLRLSCAASGIGCYRQAPGKERELVAAINWSGGNTYYADSVKGRFTISRDNAKNTVYLQMNSLKPEDTAVYYCNAVVWVEVPGDYWGQGTQVTVSS | low polyreactivity |
| QVQLVESGGGLVQAGGSLRLSCAASGFIFAYYAMGWYRQAPGKERELVAGINRTGSTNYADSVKGRFSISRDNAKNTVYLQMNSLKPEDTAVYYCAARGYRSGGGYNYWGQGTQVTVSS | high polyreactivity |
| QVQLEESGGGLVQAGGSLRLSCAASGLIFITYAMGWYRQAPGKERELVATITLRGGSTYYADSVKGRFTISRDNAKNTVYLQMNSLKPEDTAVYYCAADVGYWGRSRGYPSDDYDYWGQGTQVTVSS | low polyreactivity |
| QVQLVESGGGLDQAGGSLRLSCAASGRTFGRNAMGWYRQAPGKESELVAASSTRGGSTFYADSVKARFTISRDNAKNTVYLQMNSLKPEDTAVYYCAAAGTARWPRPTSGLLDYYYWGQVTQVTVSS | high polyreactivity |
| QVQLVESGGGLVQAGGSHRISCAASGRTFARYVMGWYRQAPGKERELVAAISRSGGTYYADSVKGRFTISRDNAKNTVYLQMNSLKPEDTAVYYCRIPSHGGVYWGQGTQVTVSS | high polyreactivity |
| QVQLVESGGGLVQAGGSLRLSCAASGSIFRSYAMGWYRQAPGKERELVAAITSGDSTYYADSVKGRFTISRDNAKNTVYLQMNSLKPEDTAVYYCATGLGSTDRSYEYWGQGTQVTVSS | low polyreactivity |
| QVQLVESGGGLVQAGGSLRLSCAASGRIFSVYARGWYRQAPGKERELVAAITWTGGRTYYADSVKGRFTISRDNAKNTVYLQMNSLKPEDTAVYYCAAQWVRSYQMYWGQGTQVTVSS | high polyreactivity |
| QVQLVESVGGLVQAGGSLRLSCAASGSTFAANAMGWYRQAPGKASELVAAITSVGTTYYADSVKGRFTISRDNGKNTVYLQMNSLKPEDTEVYYCNAEYGVWYDYLVVPYDYWGQGTQVTVSS | low polyreactivity |
| QVQHVESGGGLVQAGGSLRLSCAASGFTSSRNAMGWSRQAPGKERELVATISSGGDTYYADSVKGRFTISRDNAKNSVYLQMNSLKPEYTAVYYCNKDTLYAWGYDYWGQGTQVTVSS | low polyreactivity |
